Measured values from patent US20120134993A1 (ZymoGenetics, published 2012).
Changes are numbered by the printed parent chain. Names may count otherwise.

T1: recombinant human FGF6 (human, UniProt P10767 83-208, limits assumed)
T1 sequence (looked up): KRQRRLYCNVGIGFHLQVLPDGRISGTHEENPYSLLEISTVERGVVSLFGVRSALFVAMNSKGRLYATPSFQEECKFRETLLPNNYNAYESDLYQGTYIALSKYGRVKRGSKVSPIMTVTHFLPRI

T2: recombinant human FGF4 (human, UniProt P08620 31-206, limits assumed)
T2 sequence (looked up): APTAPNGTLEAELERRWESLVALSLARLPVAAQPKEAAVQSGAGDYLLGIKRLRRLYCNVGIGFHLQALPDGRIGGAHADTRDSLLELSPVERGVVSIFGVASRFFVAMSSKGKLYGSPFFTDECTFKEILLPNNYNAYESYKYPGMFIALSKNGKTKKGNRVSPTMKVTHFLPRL

B1: recombinant human FGF-8b (ligand, UniProt P55075-3 23-215, looked up)
chain: QVTVQSSPNFTQHVREQSLVTDQLSRRLIRTYQLYSRTSGKHVQVLANKRINAMAEDGDPFAKLIVETDTFGSRVRVRGAETGLYICMNKKGKLIAKSNGKGKDCVFTEIVLENNYTALQNAKYEGWYMAFTRKGRPRKGSKTRQHQREVHFMKRLPRGHHTTEQSLRFEFLNYPPFTRSLRGSQRTWAPEPR
B2: FGFR3IIIc(23-375)(S249W) Fc5, full-length FGFR3-Fc S249W (A2256F) (Fc fusion)
chain: ESLGTEQRVVGRAAEVPGPEPGQQEQLVFGSGDAVELSCPPPGGGPMGPTVWVKDGTGLVPSERVLVGPQRLQVLNASHEDSGAYSCRQRLTQRVLCHFSVRVTDAPSSGDDEDGEDEAEDTGVDTGAPYWTRPERMDKKLLAVPAANTVRFRCPAAGNPTPSISWLKNGREFRGEHRIGGIKLRHQQWSLVMESVVPSDRGNYTCVVENKFGSIRQTYTLDVLERWPHRPILQAGLPANQTAVLGSDVEFHCKVYSDAQPHIQWLKHVEVNGSKVGPDGTPYVTVLKTAGANTTDKELEVLSLHNVTFEDAGEYTCLAGNSIGFSHHSAWLVVLPAEEELVEADEAGSVYAGEPKSSDKTHTCPPCPAPEAEGAPSVFLFPPKPKDTLMISRTPEVTCVVVDVSHEDPEVKFNWYVDGVEVHNAKTKPREEQYNSTYRVVSVLTVLHQDWLNGKEYKCKVSNKALPSSIEKTISKAKGQPREPQVYTLPPSRDELTKNQVSLTCLVKGFYPSDIAVEWESNGQPENNYKTTPPVLDSDGSFFLYSKLTVDKSRWQQGNVFSCSVMHEALHNHYTQKSLSLSPGK
notes: also called FGFR3 A2256F; FGFR3A2256F
B3: FGFR2alphaIIIc(145-377) Fc5, truncated FGFR2-Fc (A2559F) (Fc fusion)
chain: SENSNNKRAPYWTNTEKMEKRLHAVPAANTVKFRCPAGGNPMPTMRWLKNGKEFKQEHRIGGYKVRNQHWSLIMESVVPSDKGNYTCVVENEYGSINHTYHLDVVERSPHRPILQAGLPANASTVVGGDVEFVCKVYSDAQPHIQWIKHVEKNGSKYGPDGLPYLKVLKAAGVNTTDKEIEVLYIRNVTFEDAGEYTCLAGNSIGISFHSAWLTVLPAPGREKEITASPDYLEEPKSSDKTHTCPPCPAPEAEGAPSVFLFPPKPKDTLMISRTPEVTCVVVDVSHEDPEVKFNWYVDGVEVHNAKTKPREEQYNSTYRVVSVLTVLHQDWLNGKEYKCKVSNKALPSSIEKTISKAKGQPREPQVYTLPPSRDELTKNQVSLTCLVKGFYPSDIAVEWESNGQPENNYKTTPPVLDSDGSFFLYSKLTVDKSRWQQGNVFSCSVMHEALHNHYTQKSLSLSPGK
notes: also called FGFR2A2559F; FGFR2 A2559F
B4: FGFR2alphaIIIc(145-377)(P253R) Fc5, truncated FGFR2-Fc P253R (A2561F) (Fc fusion)
chain: B3 chain with P109R
notes: also called FGFR2 A2561F; construct #1950
B5: recombinant human FGF-17 (ligand, UniProt O60258 23-216, looked up)
chain: TQGENHPSPNFNQYVRDQGAMTDQLSRRQIREYQLYSRTSGKHVQVTGRRISATAEDGNKFAKLIVETDTFGSRVRIKGAESEKYICMNKRGKLIGKPSGKSKDCVFTEIVLENNYTAFQNARHEGWFMAFTRQGRPRQASRSRQNQREAHFIKRLYQGQLPFPNHAEKQKQFEFVGSAPTRRTKRTRRPQPLT

Assays:
[1] = target: T3, human FGFR4-Fc (R&D Systems) (human, UniProt P22455 22-369); experiment: ELISA: FGF-8b coated at 100 nM, FGFR-Fc 100 to 0.10 nM in 1:2 steps with 10 ug/ml heparin, anti-human Fc-HRP, OD 490 nm
T3 construct: Bought; also called FGFR4 (R&D systems); R&D FGFR4; not shown: Fc of the commercial fusion; not described
Experimental: (§1) To determine the binding capability of FGFR-Fc to their respective ligands, an ELISA was run. Recombinant human FGF-8b or FGF-17 (R&D Systems) was plated at 100 nM on a Nunc Maxisorp 96-well plate for 1 h at room temperature with shaking. The plates were blocked with BLOTTO (Thermo Fisher Scientific, Rockford, Ill.) for 1 h at room temperature, then washed 5 times with ELISA C buffer (137 mM NaCl, 2.7 mM KCl, 7.2 mM Na₂HPO₄, 1.5 mM KH₂PO₄, 0.05% (v/w) polysorbate 20, pH 7.2). FGFR-Fcs were diluted to 100 nM with PBS/0.1×BLOTTO/10 ug/ml porcine heparin (Sigma, St. Louis, Mo.) and then 1:2 serial dilutions were made, ending at 0.10 nM. 100 μL of FGFR-Fcs were plated and incubated at 4° C. overnight. The following day, the plates were washed 5 times with ELISA C and then incubated with 2.5 μg/mL horseradish peroxidase-conjugated anti-human Fc antibody (Jackson ImmunoResearch Laboratories, West Grove, Pa.) for 1 h at room temperature with shaking. After 5 washes with ELISA C, 100 μL of OPD in citrate buffer (5 mg of o-phenylenediamine in 63 mM sodium citrate, 37 mM citric acid, pH 5.0, 0.03% H₂O₂) was added for detection. After 2-5 minutes, the reaction was stopped with 1 N H₂SO₄. The plates were read at 490 nm using SoftMaxPro software.

recombinant human FGF-8b [2] = target: B1; experiment: cell-based or functional assay
recombinant human FGF6 [3] = target: T1, recombinant human FGF6; experiment: cell-based or functional assay
recombinant human FGF1 = recombinant human FGF1 (human, UniProt P05230 16-155); experiment: cell-based or functional assay
recombinant human FGF2 = recombinant human FGF2 (human, UniProt P09038 143-288, limits assumed); experiment: cell-based or functional assay
recombinant human FGF4 = target: T2, recombinant human FGF4; experiment: cell-based or functional assay
human FGF-9 = human FGF-9 (human, UniProt P31371 4-208); experiment: cell-based or functional assay
recombinant human FGF-8b [4] = target: B1; experiment: direct binding ELISA, FGF-8b coated, FGFR-Fc titrated with heparin, anti-human Fc-HRP
Experimental: as §1

recombinant human FGF-17 [5] = target: B5; experiment: direct binding ELISA, FGF-17 coated, FGFR-Fc titrated with heparin, anti-human Fc-HRP
Experimental: as §1

recombinant human FGF6 [6] = target: T1, recombinant human FGF6; experiment: SPR (Biacore T100), FGFR-Fc captured on protein A, FGF6 analyte with heparin, bivalent analyte model (ka1)
Experimental: (§2) Materials and Methods: Binding kinetics and affinity studies were performed on a Biacore T100™ system (GE Healthcare, Piscataway, N.J.). Methods for the Biacore T100™ were programmed using Biacore T100™ Control Software, v 2.0. Since each of the FGF receptor molecules contained a human Fc domain, biotinylated protein-A (Thermo Fisher Scientific Inc, Rockford, Ill.) was used as a capture reagent for these studies. Biotinylated protein-A was diluted to concentration of 50 μg/mL in HBS-EP buffer (10 mM HEPES, 150 mM NaCl, 3 mM EDTA, 0.05% Surfactant P20; GE Healthcare, Piscataway, N.J.), and then captured to all four flow cells of a SA (streptavidin) sensor chip. A density of approximately 1100 RU was obtained for each flow cell. Each FGF receptor molecule was subsequently captured via protein-A onto a separate flow cell of the SA chip at an approximate density of 150-250 RU. The Biacore instrument measures the mass of protein bound to the sensor chip surface, and thus, capture of the receptor was verified for each cycle.
(§3) For kinetic binding studies, serial 1:5 dilutions of FGF ligands were prepared from 200 nM-0.06 nM. These samples were injected over the surface and allowed to specifically bind to the FGF receptor captured on the sensor chip. Injections of each ligand concentration were performed with an association time of 7 minutes and dissociation time of 15 minutes. Kinetic binding studies were performed with a flow rate of 50 μL/min. All binding experiments were performed at 25° C. in HBS-P buffer (10 mM HEPES, 150 mM NaCl, 0.05% Surfactant P20, pH 7.4; GE Healthcare, Piscataway, N.J.), containing 50 μg/mL heparin (Calbiochem, La Jolla, Calif.).
(§4) Between cycles, the flow cell was washed with 20 mM hydrochloric acid to regenerate the surface. This wash step removed both the captured FGF receptor and any bound FGF ligand from the protein-A surface, and allowed for the subsequent binding of the next test sample. Data was compiled using the Biacore T100™ Evaluation software (version 2.0). Data was processed by subtracting reference flow cell and blank injections. Baseline stability was assessed to ensure that the regeneration step provided a consistent binding surface throughout the sequence of injections. Duplicate injection curves were checked for reproducibility. Binding curves were globally fit to the bivalent analyte model.

recombinant human FGF6 [7] = target: T1, recombinant human FGF6; experiment: SPR (Biacore T100), FGFR-Fc captured on protein A, FGF6 analyte with heparin, bivalent analyte model (kd1)
Experimental: as §2, §3, §4

recombinant human FGF6 [8] = target: T1, recombinant human FGF6; experiment: SPR (Biacore T100), FGFR-Fc captured on protein A, FGF6 analyte with heparin, bivalent analyte model (KA1)
Experimental: as §2, §3, §4

recombinant human FGF6 [9] = target: T1, recombinant human FGF6; experiment: SPR (Biacore T100), FGFR-Fc captured on protein A, FGF6 analyte with heparin, bivalent analyte model (KD1)
Experimental: as §2, §3, §4

recombinant human FGF-17 [10] = target: B5; experiment: ELISA: FGF-17 coated at 100 nM, FGFR-Fc 100 to 0.10 nM in 1:2 steps with 10 ug/ml heparin, anti-human Fc-HRP, OD 490 nm
Experimental: as §1

[11] = target: T3, human FGFR4-Fc (R&D Systems); experiment: as above
Experimental: as §1

Sequence of recombinant human FGF1 (P05230 16-155 limits assumed): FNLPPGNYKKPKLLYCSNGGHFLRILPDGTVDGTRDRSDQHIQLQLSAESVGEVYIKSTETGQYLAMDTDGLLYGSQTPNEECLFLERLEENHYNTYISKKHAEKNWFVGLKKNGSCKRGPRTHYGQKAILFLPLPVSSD
Sequence of recombinant human FGF2 (P09038 143-288 limits assumed): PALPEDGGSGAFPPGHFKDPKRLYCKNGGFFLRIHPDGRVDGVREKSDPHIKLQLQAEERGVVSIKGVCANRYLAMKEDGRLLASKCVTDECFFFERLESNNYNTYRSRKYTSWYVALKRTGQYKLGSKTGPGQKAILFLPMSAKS

Binder: B1
binding result [1]: binds

Binder: B2
Proliferation IC50, FGF8b-stimulated LNCap cells (3H-thymidine) (recombinant human FGF-8b [2]): 0.01 nM
IC50, FGF-stimulated HUVEC proliferation (3H-thymidine) (recombinant human FGF6 [3]): 0.95 nM
IC50, FGF-stimulated HUVEC proliferation (3H-thymidine) (recombinant human FGF1): 0.82 nM
IC50, FGF-stimulated HUVEC proliferation (3H-thymidine) (recombinant human FGF2): 1 nM
IC50, FGF-stimulated HUVEC proliferation (3H-thymidine) (recombinant human FGF4): 0.74 nM
Proliferation IC50, FGF-9-stimulated HCO osteoblasts (3H-thymidine) (human FGF-9): 0.84 nM
IC50 (recombinant human FGF-8b [4]): 37.7 nM
IC50 (recombinant human FGF-17 [5]): 8.66 nM
kon (recombinant human FGF6 [6]): 600000 M⁻¹ s⁻¹
koff (recombinant human FGF6 [7]): 0.0005 s⁻¹
Ka (recombinant human FGF6 [8]): 1e+09 M⁻¹
Kd (recombinant human FGF6 [9]): 0.8 nM

Binder: B3
binding result (recombinant human FGF-17 [10]): no binding (tested: 100 nM)

Binder: B4
binding result (recombinant human FGF-17 [10]): no binding (tested: 100 nM)

Binder: B5
binding result [11]: binds
